US7217548B2, “N-acetylglucosaminlytransferase and polynucleotide encoding the same” (National Institute of Advanced Industrial Science and …, priority 2000, dated 2007)
One block for each molecule: values may come before it.

Key:
OMGnT = OMGnT activity in serum-free medium of HEK293T cells expressing solubilized enzymes; type: biochemical, human; details: serum-free medium of HEK293T transfectants
Protocol: The enzyme solution was added to 140 mM MES [2-(N-morpholino) ethanesulfonic acid] buffer (pH 7.0) containing 0.4 mM Man-peptide, 0.2 mM UDP-[^3H]GlcNAc (up to 228,000 dpm/nmol), 10 mM MnCl2, 5 mM AMP, 200 mM GlcNAc, 2%(w/v) Triton X-100, 10% glycerol, 2 μg/ml antipain, 2 μg/ml chymostatin, 3 μg/ml pepstatin A, 2 μg/ml leupeptin, 1 mM benzamidine-HCl, and 1 mM PMSF (phenylmethylsulfonyl fluoride) to prepare 50 μl of reaction solution. After the reaction at 37° C. for 3 hours, the reaction was terminated by 3 minutes of boiling. The reaction mixture was then filtered with a filter Ultrafree-MC (Millipore) having a pore size of 0.22 μm to remove solids, and analyzed by Wakopak 5C18-200 column (4.6×250 mm, Wako Pure Chemical Industries, Ltd.). The separation was carried out using concentration gradient with Solution A and Solution B at a flow rate of 1.0 ml/min. […] Peptide detection was carried out at 214 nm, and the radioactivity of each fraction was assayed using a liquid scintillation counter.
Each secretory expression plasmid was transiently expressed in a HEK293T cell derived from human embryonic kidney. Usually, HEK293T cells were cultured in D-MEM (Gibco, #11995-065) containing 10% Fetal Calf Serum (Hyclone), 10 mM MEM Non-Essential Amino Acids solution (Gibco), 2 mM Glutamine (Gibco), and 100 units/ml Penicillin/100 μg/ml Streptomycin (Gibco). In a 6-well plate, 2 μg of plasmid was transfected into 50 to 70% confluent cells by calcium phosphate method. After overnight cultivation, the medium exchange was performed and the cultivation was continued for 48 hours [Pear, W. S., Nolan, G. P., Scott, M. L. and Baltimore, D., Proc. Natl. Acad. Sci. USA, (1993), 90, 8392–8396]. Further, the medium was exchanged with a serum-free medium, and after 48-hour cultivation, the supernatant was collected.
According to the method described in Example 1, OMGnT activity in the serum-free medium was assayed.

GnT-I = target: T1, GnT-I (Homo sapiens, UniProt P26572); experiment: GnT-I activity assay of solubilized enzymes; type: biochemical; details: method of Reference Example 2
T1 construct: Ig kappa chain secretory signal (N); made in house; host or cells: HEK293T (transient, secreted into serum-free medium)
T1 sequence (P26572 39-445 limits assumed): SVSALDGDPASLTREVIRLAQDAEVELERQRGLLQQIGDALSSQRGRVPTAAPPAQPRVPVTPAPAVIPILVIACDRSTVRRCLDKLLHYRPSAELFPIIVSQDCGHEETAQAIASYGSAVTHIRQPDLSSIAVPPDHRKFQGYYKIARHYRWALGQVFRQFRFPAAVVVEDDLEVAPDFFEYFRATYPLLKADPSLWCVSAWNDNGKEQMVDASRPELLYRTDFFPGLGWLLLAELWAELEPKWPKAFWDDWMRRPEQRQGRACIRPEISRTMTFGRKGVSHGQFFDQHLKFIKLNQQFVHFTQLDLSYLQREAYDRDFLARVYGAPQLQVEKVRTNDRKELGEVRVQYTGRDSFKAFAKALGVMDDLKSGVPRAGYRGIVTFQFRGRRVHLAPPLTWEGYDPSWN
Protocol: The activity of GnT-1 was assayed with a method by Yoshida et al. [Yoshida, S., Suzuki, M., Yamano, S., Takeuchi, M., Ikenaga, H., Kioka, N., Sakai, H., and Komano, T., Glycobiology, (1999), 9, 53–58] as described below. A 20 μl reaction solution was prepared by adding an enzyme source thereto so as to have a final concentration of 100 mM MES (pH 6.0), 20 mM MnCl2, 5 μM Manα1–6(Manα1–3)Manα1–6(Manα1–3)Manβ1–4GlcNAcβ1–4GlcNAc-PA(M5GN2-PA; Takara Shuzo, PA-Sugar Chain 017), 1 mM UDP-GlcNAc, 100 mM GlcNAc, 5 mM AMP, 1% Triton X-100, and 0.2% BSA. The reaction solution was incubated at 37° C. for 1 hour, and the reaction was terminated in boiling water. Thereafter, the reaction solution was analyzed by a reverse phase HPLC (Cosmosil 5C18-AR column) available from Nacalai Tesque.
When Manα1–6(Manα1–3)Manβ1–4GlcNAcβ1–4GlcNAc-PA (M3GN2-PA; Takara Shuzo, PA-Sugar Chain 016) was used as a sugar receptor, the same method was employed for analysis.

GnT-I activity (GnT-I): 500 pmol/hr/ml medium
B1: His-Xpress-sGnT-I: control: solubilized human GnT-I enzyme, 407 amino acids from 39:Ser (protein)
chain: T1 sequence (P26572 39-445 limits assumed)
modifications: left off: small tags and cut ends
notes: control: solubilized human GnT-I enzyme, 407 amino acids from 39:Ser
OMGnT activity (OMGnT): 0.4 pmol/hr/mg protein
OMGnT activity (in words) (OMGnT): almost no activity

GnT-I activity (in words) (GnT-I): did not exhibit activity at all
B2: His-Xpress-sOMGnT(S): solubilized human OMGnT, 414 amino acids 247:Ser to 660:Thr of SEQ ID NO: 2, secreted from HEK293T; plasmid named in Table 3 (protein, listed as Homo sapiens)
chain: SSAEEAECHWADTELNRRRRRFCSKVEGYGSVCSCKDPTPIEFSPDPLPDNKVLNVPVAVIAGNRPNYLYRMLRSLLSAQGVSPQMITVFIDGYYEEPMDVVALFGLRGIQHTPISIKNARVSQHYKASLTATFNLFPEAKFAVVLEEDLDIAVDFFSFLSQSIHLLEEDDSLYCISAWNDQGYEHTAEDPALLYRVETMPGLGWVLRRSLYKEELEPKWPTPEKLWDWDMWMRMPEQRRGRECIIPDVSRSYHFGIVGLNMNGYFHEAYFKKHKFNTVPGVQLRNVDSLKKEAYEVEVHRLLSEAEVLDHSKNPCEDSFLPDTEGHTYVAFIRMEKDDDFTTWTQLAKCLHIWDLDVRGNHRGLWRLFRKKNHFLVVGVPASPYSVKKPPSVTPIFLEPPPKEEGAPGAPEQT
modifications: His-Xpress tag
OMGnT activity (OMGnT): 20 pmol/hr/mg protein
OMGnT activity (in words) (OMGnT): significantly high OMGnT activity
